Results published in the supplement of paper PMC5998384.

What was measured:
HeLa Kyoto [1] = assay: solubility in G1/S (NP-40 vs SDS abundance) (log2 ratio); higher = more soluble; conditions: cell cycle stage: G1/S
HeLa Kyoto [2] = assay: melting temperature (median over replicates), in situ; higher = more thermally stable
HeLa Kyoto [3] = assay: solubility change mitosis vs G1/S (difference of NP-40 vs SDS log2 ratios) (log2 ratio difference); higher = more soluble in mitosis
HeLa Kyoto [4] = assay: thermal stability score vs G1/S (z-score of summed log2 fold changes over temperatures); higher = more thermally stable than in G1/S
[5] = cell cycle stage: early G1 (4.5 h after nocodazole release)
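Throughout, for melting temperature (median over replicates), in situ: HeLa Kyoto cells synchronized by double thymidine or nocodazole block, proteins quantified by TMT10plex mass spectrometry, three independent biological replicates.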
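Throughout, for solubility change mitosis vs G1/S (difference of NP-40 vs SDS log2 ratios): synchronized HeLa Kyoto cells (double thymidine block for G1/S, nocodazole release for mitosis), protein amounts in NP-40 versus SDS lysates quantified by mass spectrometry, three biological replicates.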
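Throughout, for solubility in G1/S (NP-40 vs SDS abundance): HeLa Kyoto cells arrested at G1/S by double thymidine block, proteins quantified by TMT10plex mass spectrometry in mild NP-40 versus SDS extracts, three biological replicates.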
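Throughout, for thermal stability score vs G1/S (z-score of summed log2 fold changes over temperatures): synchronized HeLa Kyoto cells, proteins quantified by TMT10plex mass spectrometry, three biological replicates, mitosis taken 0.5 h after nocodazole release, G1/S directly after double thymidine block.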

For “MSGASSSEQNNNSYETKTPNLRMSEKKCSWASYMTNSPTLIVMIGLPARGKTYVSKKLTRYLNWIGVPTKVFNLGVYRREAVKSYKSYDFFRHDNEEAMKIRKQCALVALEDVKAYLTEENGQIAVFDATNTTRERRDMILNFAEQNSFKVFFVESVCDDPDVIAANILEVKVSSPDYPERNRENVMEDFLKRIECYKVTYRPLDPDNYDKDLSFIKVINVGQRFLVNRVQDYIQSKIVYYLMNIHVQPRTIYLCRHGESEFNLLGKIGGDSGLSVRGKQFAQALRKFLEEQEITDLKVWTSQLKRTIQTAESLGVPYEQWKILNEIDAGVCEEMTYAEIEKRYPEEFALRDQEKYLYRYPGGESYQDLVQRLEPVIMELERQGNVLVISHQAVMRCLLAYFLDKGADELPYLRCPLHTIFKLTPVAYGCKVETIKLNVEAVNTHRDKPTNNFPKNQTPVRMRRNSFTPLSSSNTIRRPRNYSVGSRPLKPLSPLRAQDMQEGAD [PFKFB2]”, the “solubility in G1/S (log2)” value (HeLa Kyoto [1]) was 0.16, the melting temperature (HeLa Kyoto [2]; cell cycle stage: G1/S) was 53.9 °C and the melting temperature (HeLa Kyoto [2]; cell cycle stage: mitosis) was 53.3 °C. The “solubility change mitosis (log2)” value (HeLa Kyoto [3]) was -0.071, the thermal stability score (HeLa Kyoto [4]; [5]) was 0.139 and the thermal stability score (HeLa Kyoto [4]; cell cycle stage: mitosis) was 0.693.
In the case of “MSIMSYNGGAVMAMKGKNCVAIAADRRFGIQAQMVTTDFQKIFPMGDRLYIGLAGLATDVQTVAQRLKFRLNLYELKEGRQIKPYTLMSMVANLLYEKRFGPYYTEPVIAGLDPKTFKPFICSLDLIGCPMVTDDFVVSGTCAEQMYGMCESLWEPNMDPDHLFETISQAMLNAVDRDAVSGMGVIVHIIEKDKITTRTLKARMD [PSMB3]”, the “solubility in G1/S (log2)” value (HeLa Kyoto [1]) is reported as 0.275, the melting temperature (HeLa Kyoto [2]; cell cycle stage: G1/S) is reported as 59.9 °C and the melting temperature (HeLa Kyoto [2]; cell cycle stage: mitosis) is reported as 62.6 °C. For the same sequence, the “solubility change mitosis (log2)” value (HeLa Kyoto [3]) was -0.241, the thermal stability score (HeLa Kyoto [4]; [5]) was -1.89 and the thermal stability score (HeLa Kyoto [4]; cell cycle stage: mitosis) was -1.25.
In the case of “MDCSLVRTLVHRYCAGEENWVDSRTIYVGHREPPPGAEAYIPQRYPDNRIVSSKYTFWNFIPKNLFEQFRRVANFYFLIIFLVQLIIDTPTSPVTSGLPLFFVITVTAIKQGYEDWLRHKADNAMNQCPVHFIQHGKLVRKQSRKLRVGDIVMVKEDETFPCDLIFLSSNRGDGTCHVTTASLDGESSHKTHYAVQDTKGFHTEEDIGGLHATIECEQPQPDLYKFVGRINVYSDLNDPVVRPLGSENLLLRGATLKNTEKIFGVAIYTGMETKMALNYQSKSQKRSAVEKSMNAFLIVYLCILISKALINTVLKYMWQSEPFRDEPWYNQKTESERQRNLFLKAFTDFLAFMVLFNYIIPVSMYVTVEMQKFLGSYFITWDEDMFDEETGEGPLVNTSDLNEELGQVEYIFTDKTGTLTENNMEFKECCIEGHVYVPHVICNGQVLPESSGIDMIDSSPSVNGREREELFFRALCLCHTVQVKDDDSVDGPRKSPDGGKSCVYISSSPDEVALVEGVQRLGFTYLRLKDNYMEILNRENHIERFELLEILSFDSVRRRMSVIVKSATGEIYLFCKGADSSIFPRVIEGKVDQIRARVERNAVEGLRTLCVAYKRLIQEEYEGICKLLQAAKVALQDREKKLAEAYEQIEKDLTLLGATAVEDRLQEKAADTIEALQKAGIKVWVLTGDKMETAAATCYACKLFRRNTQLLELTTKRIEEQSLHDVLFELSKTVLRHSGSLTRDNLSGLSADMQDYGLIIDGAALSLIMKPREDGSSGNYRELFLEICRSCSAVLCCRMAPLQKAQIVKLIKFSKEHPITLAIGDGANDVSMILEAHVGIGVIGKEGRQAARNSDYAIPKFKHLKKMLLVHGHFYYIRISELVQYFFYKNVCFIFPQFLYQFFCGFSQQTLYDTAYLTLYNISFTSLPILLYSLMEQHVGIDVLKRDPTLYRDVAKNALLRWRVFIYWTLLGLFDALVFFFGAYFVFENTTVTSNGQIFGNWTFGTLVFTVMVFTVTLKLALDTHYWTWINHFVIWGSLLFYVVFSLLWGGVIWPFLNYQRMYYVFIQMLSSGPAWLAIVLLVTISLLPDVLKKVLCRQLWPTATERVQTKSQCLSVEQSTIFMLSQTSSSLSF [ATP11A]”, the “solubility in G1/S (log2)” value (HeLa Kyoto [1]) is reported as -0.526, the melting temperature (HeLa Kyoto [2]; cell cycle stage: G1/S) is reported as 53.8 °C and the melting temperature (HeLa Kyoto [2]; cell cycle stage: mitosis) is reported as 53.8 °C. The “solubility change mitosis (log2)” value (HeLa Kyoto [3]) was 0.163, the thermal stability score (HeLa Kyoto [4]; [5]) was -1.06 and the thermal stability score (HeLa Kyoto [4]; cell cycle stage: mitosis) was -0.922.
For “MSESFDCAKCNESLYGRKYIQTDSGPYCVPCYDNTFANTCAECQQLIGHDSRELFYEDRHFHEGCFRCCRCQRSLADEPFTCQDSELLCNDCYCSAFSSQCSACGETVMPGSRKLEYGGQTWHEHCFLCSGCEQPLGSRSFVPDKGAHYCVPCYENKFAPRCARCSKTLTQGGVTYRDQPWHRECLVCTGCQTPLAGQQFTSRDEDPYCVACFGELFAPKCSSCKRPIVGLGGGKYVSFEDRHWHHNCFSCARCSTSLVGQGFVPDGDQVLCQGCSQAGP [FHL3]”, the “solubility in G1/S (log2)” value (HeLa Kyoto [1]) was -0.281, the melting temperature (HeLa Kyoto [2]; cell cycle stage: G1/S) was 57.7 °C and the melting temperature (HeLa Kyoto [2]; cell cycle stage: mitosis) was 56.8 °C. The “solubility change mitosis (log2)” value (HeLa Kyoto [3]) was -0.184, the thermal stability score (HeLa Kyoto [4]; [5]) was 0.504 and the thermal stability score (HeLa Kyoto [4]; cell cycle stage: mitosis) was -1.78.
“MAASALYACTKCTQRYPFEELSQGQQLCKECRIAHPIVKCTYCRSEFQQESKTNTICKKCAQNVKQFGTPKPCQYCNIIAAFIGTKCQRCTNSEKKYGPPQTCEQCKQQCAFDRKEEGRRKVDGKLLCWLCTLSYKRVLQKTKEQRKSLGSSHSNSSSSSLTEKDQHHPKHHHHHHHHHHRHSSSHHKISNLSPEEEQGLWKQSHKSSATIQNETPKKKPKLESKPSNGDSSSINQSADSGGTDNFVLISQLKEEVMSLKRLLQQRDQTILEKDKKLTELKADFQYQESNLRTKMNSMEKAHKETVEQLQAKNRELLKQVAALSKGKKFDKSGSILTSP [FAM76B]” was tested, and the “solubility in G1/S (log2)” value (HeLa Kyoto [1]) was -0.529, the melting temperature (HeLa Kyoto [2]; cell cycle stage: mitosis) was 51.3 °C and the “solubility change mitosis (log2)” value (HeLa Kyoto [3]) was 0.486. It also gave a thermal stability score (HeLa Kyoto [4]; [5]) of -0.509 and a thermal stability score (HeLa Kyoto [4]; cell cycle stage: mitosis) of 0.107.
“MATSSMSKGCFVFKPNSKKRKISLPIEDYFNKGKNEPEDSKLRFETYQLIWQQMKSENERLQEELNKNLFDNLIEFLQKSHSGFQKNSRDLGGQIKLREIPTAALVLGVNVTDHDLTFGSLTEALQNNVTPYVVSLQAKDCPDMKHFLQKLISQLMDCCVDIKSKEEESVHVTQRKTHYSMDSLSSWYMTVTQKTDPKMLSKKRTTSSQWQSPPVVVILKDMESFATKVLQDFIIISSQHLHEFPLILIFGIATSPIIIHRLLPHAVSSLLCIELFQSLSCKEHLTTVLDKLLLTTQFPFKINEKVLQVLTNIFLYHDFSVQNFIKGLQLSLLEHFYSQPLSVLCCNLPEAKRRINFLSNNQCENIRRLPSFRRYVEKQASEKQVALLTNERYLKEETQLLLENLHVYHMNYFLVLRCLHKFTSSLPKYPLGRQIRELYCTCLEKNIWDSEEYASVLQLLRMLAKDELMTILEKCFKVFKSYCENHLGSTAKRIEEFLAQFQSLDETKEEEDASGSQPKGLQKTDLYHLQKSLLEMKELRRSKKQTKFEVLRENVVNFIDCLVREYLLPPETQPLHEVVYFSAAHALREHLNAAPRIALHTALNNPYYYLKNEALKSEEGCIPNIAPDICIAYKLHLECSRLINLVDWSEAFATVVTAAEKMDANSATSEEMNEIIHARFIRAVSELELLGFIKPTKQKTDHVARLTWGGC [ORC3]” was tested, and the “solubility in G1/S (log2)” value (HeLa Kyoto [1]) was -0.303, the melting temperature (HeLa Kyoto [2]; cell cycle stage: G1/S) was 48 °C and the melting temperature (HeLa Kyoto [2]; cell cycle stage: mitosis) was 48.7 °C. For the same sequence, the “solubility change mitosis (log2)” value (HeLa Kyoto [3]) was -0.145, the thermal stability score (HeLa Kyoto [4]; [5]) was 1.65 and the thermal stability score (HeLa Kyoto [4]; cell cycle stage: mitosis) was 2.89.
